Experimental data reported in the RNAGym collection of RNA variant scans (doi:10.7554/elife.80360).

B1: Hairpin Ribozyme (parent)
chain: GUCCUCUUUCACGUGCGCGUGAAAGAGAGAAGUGAACCAGAGAAACACACGUUGUGGUAUAUUACCUGGUA

Variants of: B1
Assay: self-cleavage, relative activity (ratio to wild type); higher = more cleavage; co-transcriptional

Row | Variant | self-cleavage
1 | CUCCUCUUUCACGUGCGCGUGAAAGAGAGAAGUGAACCAGAGAAACACACGUUGUGGUAUAUUACCCGGUA | 0.119
2 | UUGCUCUUUCACGUGCGCGUGAAAGAGAGAAGUGAACCAGAGAAACACACGUUGUGGUAUAUUACCUGGUA | 0.122
3 | UUACUCUUUCACGUGCGCGUGAAAGAGAGAAGUGAACCAGAGAAACACACGUUGUGGUAUAUUACCUGGUA | 0.161
4 | UUCCUCUUUCACGUGCGCGUGAAAGAGAGAAGUGAACCAGAGAAACAAACGUUGUGGUAUAUUACCUGGUA | 0.134
5 | CUCCUCUUUCACGUGCGCGUGAAAGAGAGAAGUGAACCAGAGAAACACACGUAGUGGUAUAUUACCUGGUA | 0.2
6 | UUCCUCUUUCACGUGCGCGUGCAAGAGAGAAGUGAACCAGAGAAACACACGUUGUGGUAUAUUACCUGGUA | 0.146
7 | CUCCUCUUUCACGUGCGCGUGAAAGAGAGAAGUGAACCAGAGAAACACACGUUGUGGUAUAAUACCUGGUA | 0.0347
8 | CUCCUCUUUCACGUGCGCGUGAAAGAGAGAAGUGAACCAGAGAAACACACGUUGUGGUAUAGUACCUGGUA | 0.4
9 | UUCCUCUUUCACGUGCGCGUGAAAGAGAGAAGUGAACCAGAGAAACACACGUUGUGGUGUAUUACCUGGUA | 0.216
10 | CUCCUCUUUCACGUGCGCGUGAAAGAGAGAAGUGAACCAGAGAAACACACGCUGUGGUAUAUUACCUGGUA | 0.132
11 | UUCCUCUUUCACGUGAGCGUGAAAGAGAGAAGUGAACCAGAGAAACACACGUUGUGGUAUAUUACCUGGUA | 0.111
12 | UUCCUCUUUCACGUGCGCGUGAAAGAGAGAAGUGAACCAGAGAAACACAUGUUGUGGUAUAUUACCUGGUA | 0.0718
13 | CUCCUCUUUCACGUGCGCGUGAAAGAGAGAAGUGAACCAGAGAAACACACGUUGUGGGAUAUUACCUGGUA | 0.284
14 | UUCCUCUUUGACGUGCGCGUGAAAGAGAGAAGUGAACCAGAGAAACACACGUUGUGGUAUAUUACCUGGUA | 0.231
15 | UUCCUCUUUCACGUGCGCGUGAAAGAGAGAAGUGAACCAGAGAAACUCACGUUGUGGUAUAUUACCUGGUA | 0.0955
16 | UUCCUCUUUCACGUGCGCGUGAAAGAGAGAAGUGAACCAGAGAAACACACGUUGUGGUAUGUUACCUGGUA | 0.041
17 | UUCCUCUUUCACGUGCGCGUGAAAGAGAGAAGUGAACCAGAGAAACACACGUUGUGGUAUCUUACCUGGUA | 0.0683
18 | UUCCUCUUUCACGUGCGCGUGAAAGAGAGAAGUGAACCAGAGAAACACACGUUGUGGUAUUUUACCUGGUA | 0.116
19 | UUCCUCUUUCACGUGCGCGUGAAAGAGAGAAGUGAACCAGGGAAACACACGUUGUGGUAUAUUACCUGGUA | 0.0954

Row | Variant | self-cleavage
20 | UUCCUCUUUCACGUGCGCGUGAAAGAGAGAAGUGAACCAGAGACACACACGUUGUGGUAUAUUACCUGGUA | 0.0421
21 | UUCCUCUUUCACGUGCGCGUGAAAGAGAGAAGUGAGCCAGAGAAACACACGUUGUGGUAUAUUACCUGGUA | 0.184
22 | UUCCUCUUUCUCGUGCGCGUGAAAGAGAGAAGUGAACCAGAGAAACACACGUUGUGGUAUAUUACCUGGUA | 0.201
23 | UUCCUCUUUCGCGUGCGCGUGAAAGAGAGAAGUGAACCAGAGAAACACACGUUGUGGUAUAUUACCUGGUA | 0.143
24 | CUCCUCUUUCACGUGCGCGUGAAAGAGAGAAGUGAACCAGAGAAACACACGUUGCGGUAUAUUACCUGGUA | 0.18
25 | CUCCUCUUUCACGUGCGCGUGAAAGAGAGAAGUGAACCAGAGAAACACACGUUGAGGUAUAUUACCUGGUA | 0.0884
26 | CUCCUCUUUCACGUGCGCGUGAAAGAGAGAAGUGAACCAGAGAAACACACGUUGUGGUAUAUGACCUGGUA | 0.0496
27 | UUCCUCUUUCACGUGCGCGUGAAAGAGUGAAGUGAACCAGAGAAACACACGUUGUGGUAUAUUACCUGGUA | 0.198
28 | UUCCUCUUUCACGUGCGCGUGAAAGAGAGAAGUGAACCAGAGAAAAACACGUUGUGGUAUAUUACCUGGUA | 0.106
29 | UUCCUCUUUCACGUGCGCGUGAAAGAGAGAAGUGAACCAGAGAAACACACGUUGUGGUAUAUUACCUGGUA | 0.13
30 | UUCCUUUUUCACGUGCGCGUGAAAGAGAGAAGUGAACCAGAGAAACACACGUUGUGGUAUAUUACCUGGUA | 0.139
31 | UUCCUCUUUCACGUGCGGGUGAAAGAGAGAAGUGAACCAGAGAAACACACGUUGUGGUAUAUUACCUGGUA | 0.131
32 | CUCCUCUUUCACGUGCGCGCGAAAGAGAGAAGUGAACCAGAGAAACACACGUUGUGGUAUAUUACCUGGUA | 0.241
33 | UUCCUCUUUCACGUGCGCGUGAAAGAGAGAAGUGAACCAGAGAAACACACGUUGUGGUAUAUUACCUGGUC | 0.273
34 | UUCCUCUUUCACGUGCGCGUGAAAGAGAGAAGUGCACCAGAGAAACACACGUUGUGGUAUAUUACCUGGUA | 0.0858
35 | UUCCUCUUUCACGUGCGCGUGAAAGAGAGAAGUGGACCAGAGAAACACACGUUGUGGUAUAUUACCUGGUA | 0.0705
36 | UUCGUCUUUCACGUGCGCGUGAAAGAGAGAAGUGAACCAGAGAAACACACGUUGUGGUAUAUUACCUGGUA | 0.213
37 | UUCCUCUUUCACGUGCGCGUGAAAGAGAGAAGUGAACCGGAGAAACACACGUUGUGGUAUAUUACCUGGUA | 0.121
38 | UUCCUCUUUCACGUGCGCGUGAAUGAGAGAAGUGAACCAGAGAAACACACGUUGUGGUAUAUUACCUGGUA | 0.117
